Like-named read-outs stand apart in the source and are kept apart here.
Assays:
[1] = biological target: Recombinant Aspf2 (A. fumigatus) lacking the N-terminal 19-amino acid signal peptide, His-tagged (Aspergillus fumigatus) (UniProt P79017); experiment: BLI; Aspf2 loaded on Ni(II)-NTA biosensor; analyte Factor H 190-3,000 nM (150 s association, 150 s dissociation) or plasminogen 687.5-5,500 nM (200 s each); buffer control subtracted, BLITZ software
[2] = biological target: Aspf2 expressed on the surface of A. fumigatus conidia (Aspergillus fumigatus (endogenous in CEA17 ΔakuB^Ku80 conidia)) (UniProt P79017); experiment: flow cytometry on cells; wild-type, Δaspf2 and aspf2^C conidia (BSA-treated) incubated with increasing amounts of purified Factor H, FHL-1, FHR1 or plasminogen 1 h at RT; bound protein detected with antibodies; median fluorescence intensity
[3] = biological target: Aspf2 expressed on the surface of A. fumigatus conidia (Aspergillus fumigatus (endogenous in CEA17 ΔakuB^Ku80 conidia)) (UniProt P79017); experiment: as above; remark: listed apart in the source
Human Factor H = biological target: T1, Human Factor H (human, UniProt P08603 19-1231); experiment: BLI; Aspf2 loaded on Ni(II)-NTA biosensor; analyte Factor H 190-3,000 nM (150 s association, 150 s dissociation) or plasminogen 687.5-5,500 nM (200 s each); buffer control subtracted, BLITZ software; settings: both partners purified
T1 construct: human complement Factor H, 150-kDa plasma protein composed of 20 short conserved repeats (SCR); also called NHS derived Factor H; source: bought: CompTech (purified human Factor H); also in normal human serum (NHS-EDTA) and C3 depleted serum
T1 sequence (P08603 19-1231): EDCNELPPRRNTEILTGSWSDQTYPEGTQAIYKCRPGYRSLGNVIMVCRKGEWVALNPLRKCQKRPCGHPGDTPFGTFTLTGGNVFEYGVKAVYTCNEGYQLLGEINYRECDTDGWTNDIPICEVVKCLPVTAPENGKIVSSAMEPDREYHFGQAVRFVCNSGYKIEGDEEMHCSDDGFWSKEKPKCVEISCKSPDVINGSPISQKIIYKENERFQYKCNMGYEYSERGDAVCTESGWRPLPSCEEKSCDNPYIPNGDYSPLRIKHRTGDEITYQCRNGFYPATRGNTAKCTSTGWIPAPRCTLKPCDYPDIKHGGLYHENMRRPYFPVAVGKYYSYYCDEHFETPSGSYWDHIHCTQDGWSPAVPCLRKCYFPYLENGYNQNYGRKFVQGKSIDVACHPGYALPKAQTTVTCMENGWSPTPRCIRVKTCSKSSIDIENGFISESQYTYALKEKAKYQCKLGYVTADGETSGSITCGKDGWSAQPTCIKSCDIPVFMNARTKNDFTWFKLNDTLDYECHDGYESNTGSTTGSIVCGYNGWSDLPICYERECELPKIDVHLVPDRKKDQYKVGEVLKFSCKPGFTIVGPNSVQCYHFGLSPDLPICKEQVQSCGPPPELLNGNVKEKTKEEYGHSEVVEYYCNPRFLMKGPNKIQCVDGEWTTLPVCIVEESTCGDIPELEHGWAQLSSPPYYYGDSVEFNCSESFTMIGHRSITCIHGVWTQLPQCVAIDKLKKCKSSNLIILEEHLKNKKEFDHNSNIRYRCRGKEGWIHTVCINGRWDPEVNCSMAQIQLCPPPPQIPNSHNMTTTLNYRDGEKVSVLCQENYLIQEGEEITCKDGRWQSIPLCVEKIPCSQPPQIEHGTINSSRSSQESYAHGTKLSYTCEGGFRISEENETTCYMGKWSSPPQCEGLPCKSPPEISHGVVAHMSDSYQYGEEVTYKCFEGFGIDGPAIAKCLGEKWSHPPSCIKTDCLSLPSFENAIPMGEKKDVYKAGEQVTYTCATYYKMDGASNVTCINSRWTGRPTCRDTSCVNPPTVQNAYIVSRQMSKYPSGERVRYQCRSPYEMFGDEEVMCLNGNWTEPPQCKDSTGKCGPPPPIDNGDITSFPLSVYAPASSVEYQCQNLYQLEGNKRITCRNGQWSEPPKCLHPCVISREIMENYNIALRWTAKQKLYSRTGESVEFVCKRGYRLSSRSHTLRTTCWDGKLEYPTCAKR

Molecule	Kd [1] [nM]	percent lower binding to Δaspf2 conidia than to wild-type conidia (plasminogen at 20 µg/ml) [2] [%]	percent lower binding to Δaspf2 conidia than to wild-type conidia (plasminogen at 20 µg/ml) [3] [%]	Kd (Human Factor H) [nM]
Human plasminogen (natural protein)	846	31	24	–
Recombinant Aspf2 (A. fumigatus) lacking the N-terminal 19-amino acid signal peptide, His-tagged (natural protein, Aspergillus fumigatus, UniProt P79017 20-310, looked up, Aspf2 of Aspergillus fumigatus, a 310 amino acid-long protein; cloned from cDNA of strain CEA17 akuB^KU80 without the N-terminal 19-amino acid signal peptide; also called ΔN19AspF2; source: Pichia pastoris X33 (pPICZαB), culture supernatant, purified (HisTrap column)) TLPTSPVPIAARATPHEPVFFSWDAGAVTSFPIHSSCNATQRRQIEAGLNEAVELARHAKAHILRWGNESEIYRKYFGNRPTMEAVGAYDVIVNGDKANVLFRCDNPDGNCALEGWGGHWRGANATSETVICDRSYTTRRWLVSMCSQGYTVAGSETNTFWASDLMHRLYHVPAVGQGWVDHFADGYDEVIALAKSNGTESTHDSEALQYFALEAYAFDIAAPGVGCAGESHGPDQGHDTGSASAPASTSTSSSSSGSGSGATTTPTDSPSATIDVPSNCHTHEGGQLHCT	–	–	–	76
